This passage reports % Inhibition of Specific Binding results from US12427210B2, “Compounds comprising a fibroblast activation protein ligand and use thereof” (priority 2019, dated 2025).

What all share (experiment): radioligand displacement, compound at 10 µM
Common to all, as to details: remark: other sources report otherwise
For orientation: In a radioligand displacement assay an active substance lowers the binding of a labelled ligand.

One test deals with T1, D1 (h) (human), P21728.
T1 chain: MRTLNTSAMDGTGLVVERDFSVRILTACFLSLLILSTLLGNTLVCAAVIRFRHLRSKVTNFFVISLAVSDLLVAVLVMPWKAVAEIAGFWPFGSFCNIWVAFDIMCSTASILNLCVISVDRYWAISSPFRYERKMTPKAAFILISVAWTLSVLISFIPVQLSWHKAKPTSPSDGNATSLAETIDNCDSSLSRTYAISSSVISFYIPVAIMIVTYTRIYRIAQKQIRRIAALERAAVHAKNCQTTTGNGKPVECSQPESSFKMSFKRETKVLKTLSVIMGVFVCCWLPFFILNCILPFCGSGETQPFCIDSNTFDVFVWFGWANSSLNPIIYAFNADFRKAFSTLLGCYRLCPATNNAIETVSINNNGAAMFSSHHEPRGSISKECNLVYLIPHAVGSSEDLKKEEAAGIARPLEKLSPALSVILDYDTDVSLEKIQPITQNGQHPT

The target in test [1] is 5-HT2A (h) (human), P28223.
Test [2] addresses norepinephrine transporter (h) (human), P23975.
Test [3] deals with kappa (h) (KOP) (human), P41145.
Test [4] deals with beta 1 (h) (human), P08588.
Test [5] has as its target T2, 5-HT1A (h) (human), P08908.
T2 chain: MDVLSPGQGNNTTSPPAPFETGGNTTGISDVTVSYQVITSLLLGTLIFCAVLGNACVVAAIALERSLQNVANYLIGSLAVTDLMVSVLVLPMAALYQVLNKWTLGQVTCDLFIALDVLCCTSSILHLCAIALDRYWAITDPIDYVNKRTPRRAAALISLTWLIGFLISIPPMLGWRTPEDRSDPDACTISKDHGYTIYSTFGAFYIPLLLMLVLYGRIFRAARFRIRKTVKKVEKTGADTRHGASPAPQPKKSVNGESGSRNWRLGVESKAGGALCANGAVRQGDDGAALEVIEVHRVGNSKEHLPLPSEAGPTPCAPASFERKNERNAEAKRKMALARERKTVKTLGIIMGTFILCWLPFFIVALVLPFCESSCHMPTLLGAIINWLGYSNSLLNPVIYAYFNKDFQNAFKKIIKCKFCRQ

The target in test [6] is 5-HT2B (h) (human), P41595.
Test [7] has as its target T3, CCK1 (CCKA) (h) (human), P32238.
T3 chain: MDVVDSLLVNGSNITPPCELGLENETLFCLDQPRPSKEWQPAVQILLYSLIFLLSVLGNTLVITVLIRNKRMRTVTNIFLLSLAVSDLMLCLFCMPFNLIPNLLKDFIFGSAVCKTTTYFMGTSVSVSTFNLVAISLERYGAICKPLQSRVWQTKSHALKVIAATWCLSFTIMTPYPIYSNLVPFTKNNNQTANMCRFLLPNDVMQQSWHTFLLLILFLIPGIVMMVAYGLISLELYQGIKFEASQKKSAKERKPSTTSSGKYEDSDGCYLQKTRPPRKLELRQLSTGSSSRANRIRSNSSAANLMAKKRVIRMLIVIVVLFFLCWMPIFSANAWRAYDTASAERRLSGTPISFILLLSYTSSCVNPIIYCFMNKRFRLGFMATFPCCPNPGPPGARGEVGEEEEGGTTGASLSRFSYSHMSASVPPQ

Test [8] concerns the target T4, alpha 1A (h) (human), P35348.
T4 chain: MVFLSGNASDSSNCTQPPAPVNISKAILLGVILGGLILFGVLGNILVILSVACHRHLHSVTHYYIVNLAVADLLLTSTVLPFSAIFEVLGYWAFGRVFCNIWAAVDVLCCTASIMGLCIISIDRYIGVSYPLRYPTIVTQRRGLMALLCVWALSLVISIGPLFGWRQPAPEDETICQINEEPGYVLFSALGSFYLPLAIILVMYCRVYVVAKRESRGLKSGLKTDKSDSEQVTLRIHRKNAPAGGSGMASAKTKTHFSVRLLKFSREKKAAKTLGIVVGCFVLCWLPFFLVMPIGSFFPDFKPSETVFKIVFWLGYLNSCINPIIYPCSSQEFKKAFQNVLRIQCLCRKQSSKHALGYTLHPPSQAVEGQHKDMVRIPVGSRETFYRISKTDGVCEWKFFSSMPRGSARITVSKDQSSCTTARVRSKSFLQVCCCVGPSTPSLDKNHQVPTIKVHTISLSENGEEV

In test [9] the target is T5, 5-HT3 (h) (human), P46098.
T5 chain: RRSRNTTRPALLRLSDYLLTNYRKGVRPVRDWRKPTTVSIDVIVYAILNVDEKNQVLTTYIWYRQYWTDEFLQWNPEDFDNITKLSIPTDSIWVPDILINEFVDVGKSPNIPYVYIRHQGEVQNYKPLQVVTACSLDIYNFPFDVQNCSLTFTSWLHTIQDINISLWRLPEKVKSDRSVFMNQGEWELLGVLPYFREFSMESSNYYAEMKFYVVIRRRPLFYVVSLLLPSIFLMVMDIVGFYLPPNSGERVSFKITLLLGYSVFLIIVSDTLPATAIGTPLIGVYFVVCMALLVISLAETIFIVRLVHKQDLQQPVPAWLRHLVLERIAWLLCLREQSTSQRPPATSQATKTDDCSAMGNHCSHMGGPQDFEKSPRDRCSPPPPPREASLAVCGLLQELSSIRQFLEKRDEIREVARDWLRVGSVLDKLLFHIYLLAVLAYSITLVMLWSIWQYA

The target of test [10] is mu (MOP) (h) (human), P35372.
mu (MOP) (h) (human), P35372, sequence (P35372 whole entry): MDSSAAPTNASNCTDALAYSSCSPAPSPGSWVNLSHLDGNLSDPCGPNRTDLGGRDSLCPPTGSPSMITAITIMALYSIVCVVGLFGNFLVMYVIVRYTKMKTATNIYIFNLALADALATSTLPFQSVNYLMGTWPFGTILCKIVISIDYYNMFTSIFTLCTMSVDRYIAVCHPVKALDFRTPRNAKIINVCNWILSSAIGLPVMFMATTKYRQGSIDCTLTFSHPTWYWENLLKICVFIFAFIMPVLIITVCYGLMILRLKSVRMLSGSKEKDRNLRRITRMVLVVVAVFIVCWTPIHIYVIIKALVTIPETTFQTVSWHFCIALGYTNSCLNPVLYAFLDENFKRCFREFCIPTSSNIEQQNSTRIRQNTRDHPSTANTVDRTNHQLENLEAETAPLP

kappa (h) (KOP) (human), P41145, sequence (P41145 whole entry): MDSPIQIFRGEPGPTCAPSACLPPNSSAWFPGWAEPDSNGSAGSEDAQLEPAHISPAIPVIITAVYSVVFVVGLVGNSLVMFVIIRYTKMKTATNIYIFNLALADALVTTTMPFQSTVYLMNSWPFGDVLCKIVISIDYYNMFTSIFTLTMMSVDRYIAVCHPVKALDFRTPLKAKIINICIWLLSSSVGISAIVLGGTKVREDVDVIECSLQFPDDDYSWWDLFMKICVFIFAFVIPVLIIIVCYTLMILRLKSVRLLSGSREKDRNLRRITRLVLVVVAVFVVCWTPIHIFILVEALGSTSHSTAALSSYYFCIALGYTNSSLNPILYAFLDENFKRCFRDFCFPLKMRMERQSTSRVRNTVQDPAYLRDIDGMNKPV
5-HT2A (h) (human), P28223, sequence (P28223 whole entry): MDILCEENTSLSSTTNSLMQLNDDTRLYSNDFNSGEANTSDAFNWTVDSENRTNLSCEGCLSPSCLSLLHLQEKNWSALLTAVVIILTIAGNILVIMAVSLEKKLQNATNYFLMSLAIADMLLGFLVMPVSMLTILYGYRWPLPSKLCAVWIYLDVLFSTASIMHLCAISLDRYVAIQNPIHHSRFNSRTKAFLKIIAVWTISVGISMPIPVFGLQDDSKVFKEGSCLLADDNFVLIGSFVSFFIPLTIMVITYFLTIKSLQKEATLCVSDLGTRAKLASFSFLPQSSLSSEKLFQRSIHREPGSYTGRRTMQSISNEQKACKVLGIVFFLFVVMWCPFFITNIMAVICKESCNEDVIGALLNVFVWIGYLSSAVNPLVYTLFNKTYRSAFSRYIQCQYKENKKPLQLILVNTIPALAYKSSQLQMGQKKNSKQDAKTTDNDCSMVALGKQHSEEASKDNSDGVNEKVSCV
5-HT2B (h) (human), P41595, sequence (P41595 whole entry): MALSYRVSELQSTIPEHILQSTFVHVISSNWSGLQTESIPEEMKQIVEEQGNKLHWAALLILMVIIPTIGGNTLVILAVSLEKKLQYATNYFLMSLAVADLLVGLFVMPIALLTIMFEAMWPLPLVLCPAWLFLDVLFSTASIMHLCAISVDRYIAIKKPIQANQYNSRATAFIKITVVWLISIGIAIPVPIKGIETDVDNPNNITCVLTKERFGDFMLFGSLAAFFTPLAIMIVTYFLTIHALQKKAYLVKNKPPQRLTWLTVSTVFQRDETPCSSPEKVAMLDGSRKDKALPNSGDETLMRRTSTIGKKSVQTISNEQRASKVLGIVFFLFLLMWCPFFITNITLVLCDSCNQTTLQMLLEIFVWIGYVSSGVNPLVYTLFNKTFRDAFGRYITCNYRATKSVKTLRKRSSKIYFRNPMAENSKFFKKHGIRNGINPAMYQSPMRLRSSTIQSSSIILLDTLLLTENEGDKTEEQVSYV
norepinephrine transporter (h) (human), P23975, sequence (P23975 whole entry): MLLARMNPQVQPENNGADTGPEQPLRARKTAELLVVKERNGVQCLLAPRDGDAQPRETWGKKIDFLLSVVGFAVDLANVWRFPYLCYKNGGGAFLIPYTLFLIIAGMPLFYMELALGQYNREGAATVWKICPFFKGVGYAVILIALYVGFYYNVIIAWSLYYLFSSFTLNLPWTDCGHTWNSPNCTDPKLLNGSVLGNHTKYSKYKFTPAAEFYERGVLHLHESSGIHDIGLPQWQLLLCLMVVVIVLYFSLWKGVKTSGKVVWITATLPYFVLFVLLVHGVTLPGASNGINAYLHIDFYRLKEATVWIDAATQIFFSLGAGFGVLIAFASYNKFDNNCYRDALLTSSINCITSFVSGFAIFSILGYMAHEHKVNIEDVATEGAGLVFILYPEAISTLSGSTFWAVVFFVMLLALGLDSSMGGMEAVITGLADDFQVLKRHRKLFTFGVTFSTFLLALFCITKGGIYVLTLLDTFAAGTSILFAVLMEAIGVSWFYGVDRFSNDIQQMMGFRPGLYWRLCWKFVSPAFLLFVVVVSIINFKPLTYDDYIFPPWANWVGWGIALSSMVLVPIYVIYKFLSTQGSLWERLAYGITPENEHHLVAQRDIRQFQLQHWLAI

B1: Hex-[Cys(tMeBn(DOTA-PP))-Pro-Pro-Thr-Gln-Phe-Cys]-Asp-NH2 (3BP-3407) (peptide)
peptide: CPPTQFCD
modifications: here or on the partner: N-terminal hexanoyl (Hex); Cys1 and Cys7 cyclised through tMeBn carrying DOTA-PP; C-terminal amide
Turning to B1, the % Inhibition of Specific Binding is 0% with D1 (h) (human), P21728; -2% in test [1]; -8% in [2]; 7% in test [3]; 4% in [4]; -3% in test [5]. In addition, the % Inhibition of Specific Binding in test [6] was 2%; in [7] it was 24%; in [8], 2%; in test [9], 2%; in [10], 2%.

B2: Hex-[Cys(tMeBn(DOTA-AET))-Pro-Pro-Thr-Gln-Phe-Cys]-OH (3BP-3554) (peptide)
peptide: CPPTQFC
modifications: here or on the partner: N-terminal hexanoyl (Hex); Cys1 and Cys7 cyclised through tMeBn carrying DOTA-AET; free C-terminal acid (-OH)
For B2, the % Inhibition of Specific Binding in the test with D1 (h) (human), P21728 is 7%; in [1] it was 4%; in test [2] it was -5%; in [3], 10%; in test [4] it was -13%; in [5] it was -5%. Further, the % Inhibition of Specific Binding in test [6] was 3%; in [7], 16%; in test [8] it was -12%; in test [9], 4%; in [10], -10%.
